Assay [1] addresses SARS-CoV-2 Spike Protein (S1 Subunit, Fc Tag) (Sino 40591-V02H) (SARS-CoV-2, UniProt P0DTC2 16-685). The experiment in a line: Luminex bead assay, antibody supernatant, antigen on microspheres.
The target in assay [2] is SARS-CoV-2 Spike Protein (S1 Subunit, His Tag) (Sino 40591-V08H) (SARS-CoV-2, UniProt P0DTC2 16-685). The description is as above.
The target in assay [3] is SARS-CoV-2 Spike Protein (S1 Subunit, Fc Tag) (Sino 40591-V02H) (SARS-CoV-2, UniProt P0DTC2 16-685). In words: Luminex bead assay, supernatant on antigen microspheres.
Assay [4] has as its target SARS-CoV-2 Spike Protein (S1 Subunit, His Tag) (Sino 40591-V08H) (SARS-CoV-2, UniProt P0DTC2 16-685). The description is as above.

B1: mAb10982 (antibody, V domains shown)
VH: EVQLVESGGGLVQPGGSLRLSCAASGLTVSSNYMSWVRQAPGKGLEWVSVIYSGGTTYYADSVKGRFTISRHNSKNTLSLQMNSLRAEDTAVYYCARGEGANYYGMDVWGQGTTVTVSS
VL: QSVLTQPPSVSGAPGQRVTISCTGSSSNIGTGYDVHWYQQLPGTAPKLLIYGNSNRPSGVPDRFSGSKSGTSASLAITGLQAEDEADYYCQSYDSSLSGYVVFGGGTKLTVLG
For B1, the entries for the “Binding signal (MFI)” value in assay [1] and in assay [2] were 10800 MFI and 14000 MFI, respectively.

B2: mAb10985 (antibody, V domains shown)
VH: EVQLVESGGGLVQPGRSLRLSCAASGFTFDDYAMHWVRQAPGKGLEWVSGISWNRGSIGYADSVKGRFTISRDNAKNSLYLQMSSLRAEDTALYYCAKDGERWDSVVVPSARNGMDVWGQGTTVTVSS
VL: QSVLTQPPSVSGAPGQRVTISCTGSSSNIGAGYDVHWYQQLPGTAPKLLIYGNSNRPSGVPDRFSGSKSGTSASLAITGLQAEDEADYYCQSYDSSLSGSYVFGTGTKVTVLG
B2: in assay [3], the “Binding signal (MFI)” value came to 16200 MFI.

B3: mAb10986 (antibody, V domains shown)
VH: EVQLVESGGGLVQPGGSLRLSCAASEFTVSSNYMSWVRQAPGKGLEWVSVIYSGGSTFYADSVKGRFTISRDNSKNTLYLQMNSLRAEDTAVYYCARALPYGDLHFDYWGQGTLVTVSS
VL: QSVLTQPPSVSGAPGQRVTISCTGSSSNIGTGYDVHWYQQLPGTAPKLLIYGNTNRPSGVPDRFSGSKSGTSASLAITGLQAEDEADYYCQSYDSSLSDSYVFGTGTKVTVLG
On to B3, for which the “Binding signal (MFI)” value in assay [3] was determined as 16000 MFI; in assay [4], 19100 MFI.

B4: mAb10971 (antibody, V domains shown)
VH: EVQLVESGGGLIQPGGSLRLSCAASGVTVSSNYMSWVRQAPGKGLEWVSVIYSGGSTFYSDSVKGRFSISRDNSKNTLYLQMNSLRAEDTAVYYCARDLYYYGMDVWGQGTTVTVSS
VL: DIQLTQSPSFLSASVGDRVTITCRASQGISTYLAWYQQKPGKAPKLLIYAASTLQSGVPSRFSGSGSGTEFTLTISSLQPEDFATYYCQQLDSYPGLTFGGGTKVEIKR
With B4, the “Binding signal (MFI)” value in assay [3] came out at 17000 MFI; in assay [4] it was 21600 MFI.

B5: mAb10932 (antibody, V domains shown)
VH: EVQLVESGGGLVQSGGSLRLSCAASGLTVSSNYMSWVRQAPGKGLEWVSVIYSGGSTFYSDSVKGRFTISRHNSKNTLYLQMNSLRAEDTAVYYCARARGDAFDIWGQGTMVTVSS
VL: not shown
Take B5: the figures for the “Binding signal (MFI)” value in assay [1] and in assay [2] were 17600 MFI and 22100 MFI, respectively.

B6: mAb10921 (antibody, V domains shown)
VH: EVQLVESGGGLVQPGGSLRLSCAASGITVSSNYMSWVRQAPGKGLEWVSVIYSGGSTFYADSVKGRFTISRHNSKNTLYLQMNSLRAEDTAVYYCARERNFDAFDIWGQGTMVTVSS
VL: DIQMTQSPSSVSASVGDRVTITCRASQGISSWLAWYQQKPGKAPKLLIYAASSLQSGVPSRFSGSGSGTDFTLTISSLQPEDFATYYCQQANSFPLFTFGPGTKVDIKR
Turning to B6, the “Binding signal (MFI)” value in assay [1] is 8960 MFI; in assay [2], 12200 MFI.

B7: mAb10957 (antibody, V domains shown)
VH: EVQLVESGGGLVQPGGSLRLSCAASGVTVSSNYMSWVRQAPGKGLEWVSVIYSGGSTFYADSVKGRFTISRDNSKNTLFLQMNSLRIEDTAVYYCARDLGPYGMDVWGQGTTVTVSS
VL: DIQLTQSPSFLSASVGDRVTITCRASQGISSYLAWYQQKPGKAPKLLIYAASTLQSGVPSRFSGSGSGTQFILTISSLQPEDFATYYCQQLNSYPGFTFGPGTKVDIKR
Take B7: the results for the “Binding signal (MFI)” value in assay [3] and in assay [4] were 8450 MFI and 12000 MFI, respectively.

B8: mAb10913 (antibody, V domains shown)
VH: EVQLVESGGGLVQPGGSLRLSCAASGFTFRNYEMNWVRQAPGKGLEWVSYITSSGSTMYYADSVKGRFTISRDNAKNSLYLQMNSLRAEDTAVYYCARDGFYYYYAMDVWGQGTTVTVSS
VL: QSVLTQPPSVSAAPGQKVTISCSGSSSNIGNNYVSWYQQLPGTAPKLLIYDNNKRPSGIPDRFSGSKSGTSATLGITGLQTGDEADYYCGTWDSSLSVGRVFGTGTKVTVLG
Regarding B8, the entries for the “Binding signal (MFI)” value in assay [1] and in assay [2] were 18900 MFI and 24900 MFI, respectively.

B9: mAb10937 (antibody, V domains shown)
VH: QITLKESGPTLVKPTQTLTLTCTFSGFSLSTNVVGVGWIRQPPGKALEWLALIYWNDDKRYSPSLKSRLTITKDTSKNQVVLTMTNMDPVDTATYYCAHGPTGDYFDYWGQGTLVTVSS
VL: not shown
For B9, the “Binding signal (MFI)” value was determined as 19600 MFI in assay [1] and 26400 MFI in assay [2].

B10: mAb10989 (antibody, V domains shown)
VH: QVQLVQSGAEVKKPGASVKVSCKASGYIFTGYYMHWVRQAPGQGLEWMGWINPNSGGANYAQKFQGRVTLTRDTSITTVYMELSRLRFDDTAVYYCARGSRYDWNQNNWFDPWGQGTLVTVSS
VL: QSALTQPASVSGSPGQSITISCTGTSSDVGTYNYVSWYQQHPGKAPKLMIFDVSNRPSGVSDRFSGSKSGNTASLTISGLQAEDEADYYCSSFTTSSTVVFGGGTKLTVLG
Turning to B10, the “Binding signal (MFI)” value was 12300 MFI in assay [3] and 14200 MFI in assay [4].

B11: mAb10934 (antibody, V domains shown)
VH: not shown
VL: DIQMTQSPSSLSASVGDRVTITCQASQDIWNYINWYQQKPGKAPKLLIYDASNLKTGVPSRFSGSGSGTDFTFTISSLQPEDIATYYCQQHDDLPPTFGQGTKVEIKR
B11: the “Binding signal (MFI)” value in assay [1] is 20600 MFI; in assay [2], 27500 MFI.

B12: mAb10967 (antibody, V domains shown)
VH: EVQLVESGGGLVQPGGSLRLSCAASGFTVSSNYMSWVRQAPGKGLEWVSVIYPGGSTFYADSVKGRFTISRDNSKNTLYLQMNSLRAEDTAVYYCARDQRDFAWGQGTLVTVSS
VL: DIQMTQSPSSLSASVGDRVTITCQASQDISNYLNWYQQKPGKAPKLLIYDASNLETGVPSRFSGSGSGTDFTFTISGLQPEDIATYYCQQYDNLPPTFGQGTRLEIKR
As to B12, the “Binding signal (MFI)” value stood at 15800 MFI in assay [3] and 21900 MFI in assay [4].

B13: mAb10954 (antibody, V domains shown)
VH: EVQLVESGGGLVQPGGSLRLSCAASGITVSSNYMSWVRQAPGKGLEWVSLIYSGGSTYYADSVKGRFTISRDNSKNTLYLQMNSLRVEDTAVYYCARDHGMAAAGYNYWGQGTLVTVSS
VL: DIQMTQSPSSLSASVGDRVTITCQASQDINKYLNWYQQKPGKAPKLLIYDASNLETGVPSRFSGSGSGTDFTFTINSLQPEDFATYFCQQYDNLPPAFGQGTKVEIKR
As to B13, the “Binding signal (MFI)” value in assay [3] is 16600 MFI; in assay [4] it was 21300 MFI.

B14: mAb10935 (antibody, V domains shown)
VH: EVQLVESGGGLVQPGGSLRLSCAASGFTVSSNYMSWVRQAPGKGLEWVSLIYSGGSTYYADSVKGRFTISRHNSKNTLYLQMNSLRSEDTAVYYCARVPLGDYYYGMDVWGQGTTVTVSS
VL: DIQMTQSPSSLSASVGDRVTITCQASQDINKYLNWYQQKPGKAPKLLIYDASNLETGVPSRFSGSGSGTDFTFTISSLQPEDIATYYCQQSDNLPLTFGGGTKVEIKR
Consider B14, for which the “Binding signal (MFI)” value in assay [1] came to 20000 MFI; in assay [2], 25600 MFI.

B15: mAb10964 (antibody, V domains shown)
VH: QVQLQESGPGLVKPSETLSLTCTVSGGSINNYYWIWIRQPPGKGLEWIGYIYHSGSTNYNPSLKSRVTISVDTSKNQFSLKVSSVTAADTAVYYCANMVRGVYEDDYWGQGTLVTVSS
VL: DIQMTQSPSSLSASVGDRVTITCRASQSISNYLNWYQQKPGKAPKLLIFAASSLRSGVPSRFSGSGSGTDFTLTISSLHPEDFATYYCQQNYNTPLTFGPGTKVDIKR
For B15, the “Binding signal (MFI)” value was determined as 18600 MFI in assay [3] and 24200 MFI in assay [4].

B16: mAb10930 (antibody, V domains shown)
VH: EVQLVESGGGLVQPGRSLRLSCAASGFTFDDYAMYWVRQAPGKGLEWVSGISWNSGSIGYADSVKGRFTISRDNAKNSLYLQMNSLRAADTALYYCAKDKDWNSRGYYYYGMDVWGQGTTVTVSS
VL: not shown
Consider B16, for which the “Binding signal (MFI)” value in assay [1] was 16500 MFI; in assay [2], 21200 MFI.

B17: mAb10966 (antibody, V domains shown)
VH: EVQLVESGGGLVQPGGSLRLSCAASGLTVSSNYMSWVRQAPGKGLEWVSVIYSGGSTFYADSVKGRFTISRDNSKNTLYLQMNSLRPEDTAVYYCAREGRIAATGYGMDVWGQGTTVTVSS
VL: not shown
In the case of B17, the “Binding signal (MFI)” value in assay [3] was 16400 MFI; in assay [4], 23300 MFI.

B18: mAb10939 (antibody, V domains shown)
VH: EVQLVESGGGLVQPGGSLRLSCAASGLTVSSNYMNWVRQVPGKGLEWVSVIYSGGSKFYVDSVKGRFTISRHNSKNTLYLQMNSLRPEDTAVYYCTRDAQYYGMDVWGQGTTVTVSS
VL: DIQMTQSPSSLSASVGDRVTITCRASQSISTYLHWYQQKPGEAPKLLIYAASSLQSGVPSRFSGSGSGTDFTLTISSLQPEDFATYYCQQSYSTPPEIFGQGTKLEIKR
For B18, the “Binding signal (MFI)” value worked out at 18200 MFI in assay [1] and 23900 MFI in assay [2].

B19: mAb10956 (antibody, V domains shown)
VH: EVQLVESGGGLVQPGGSLRLSCAASGLTVSSNYMSWVRQAPGKGLEWVSVIYSGGSTFYADSVKGRFTISRDNSKNTLYLQMNSLRAEDTAVYYCARDLIKYGMDVWGQGTTVTVSS
VL: not shown
Turning to B19, the “Binding signal (MFI)” value stood at 15000 MFI in assay [3] and 20000 MFI in assay [4].

The values above are taken from patent US20220356230A1 (published 2022).
